Measurements published in the supplement of paper PMC7125110.
± gives the standard error. This sample holds only a part of the variants without activity.

B1: glmS ribozyme (parent)
chain: AUAAAAGCGCCAGAACUACAGAAAUGUAGUUGACGAGGAGGAGGUUUAUCGAAUUUUCGGCGGAUGCCUCCAAA

Variants of: B1
Test: self-cleavage kobs at 2500 uM GlcN6P; higher = faster cleavage; RNA array
Details: with glucosamine-6-phosphate
Outline: (§1)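 Barcoded glmS ribozyme variants on sequenced MiSeq chips were transcribed in situ by E. coli RNA polymerase and tracked through a hybridised Cy3 probe at 37 °C. Glucosamine-6-phosphate (40 μM to 10 mM) in HEPES/KCl/Mg(OAc)2 buffer was flowed in, and tiles were imaged over ~14 h. Signals were normalised to baseline and to non-cleaving reference variants; per-tile medians were fit to one- or two-exponential decays to give kobs. kcat and KM came from weighted Michaelis–Menten fits across concentrations.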

Going from AUAAAAGCACGAGAACUACAGAAAUGUAGUUGUCAAGGAGGAGGUUUAUCGAAUUUUAGGCGGAUGCCUGCAAA [G9A C11G A33U G35A C58A C70G] to AUAAAAGCGCCAGAUCUACAGAAAUGUAGUUGACGAGGAGGAGGAUUAUCGAAUUUUCGGCGGAGGCCUCCAAA [A15U U45A U65G], the “self-cleavage kobs at 2500 uM GlcN6P” value rises from < 1e-05 s⁻¹ to 0.00134 ± 0.00059 s⁻¹.

AUAAAAGCGCCAGAACUACAGAAAUGUAGUUGACGAGCAGGAGGUUUAUCGAUUUUUCGGCGGAUGCCUCCAAA [G38C A53U] and AUAAAAGCGCGAGAUCUACAGAAAUGUAGUUGACGAGGAGGUGGUCUAUCGAAUUUUCGGCGGAUGCCUCCAAA [C11G A15U A42U U46C] cannot be ordered by “self-cleavage kobs at 2500 uM GlcN6P” value: < 1e-05 s⁻¹ for the first, < 1e-05 s⁻¹ for the second.

AUAAAAGCGCCAGAACUACAGAAAUGUACUUGACGAGGAGGAUGUUUAUCGAAUUUUCGGCCGAUGCCUCCAAA [G29C G43U G62C] and AUAAAAGCCCCAGACCUACAGAAAUGUAGUUGCCGAGGAGGAGGUAUAUCGAAUUUUCGGCGGAGGCCUCCAAA [G9C A15C A33C U46A U65G] cannot be ordered by “self-cleavage kobs at 2500 uM GlcN6P” value: < 1e-05 s⁻¹ for the first, < 1e-05 s⁻¹ for the second.

Going from AUAAAAGCGCCAGGACUACAGAAAUGUACUUGACGAGGGGGAGGUUUAUCGAAUUUUCGGCGGAUGCCUCCAAA [A14G G29C A39G] to AUAAAAGCUCCGGCACUACAGAAAUGUAGUUGACGAGGAGGAGGUUUAUCGACUUUUCGGCGGAUGCCUCCAAA [G9U A12G A14C A53C], the “self-cleavage kobs at 2500 uM GlcN6P” value falls from 0.000197 ± 9.1e-05 s⁻¹ to < 1e-05 s⁻¹.

AUAAAAGCGCCUGAACUACAGAAAUGUAGUUGACGAGGAGGAGGUUUAUCGAAUUUUCGGCGGAUGUCUCGAAA [A12U C67U C71G] and AUAAAAGCGCCAGAACUACAGAAAUGUAGUUUACGAGGAGGAGGUUUAUCGAAUUGUCGGCGGAUGCCUCAAAA [G32U U56G C71A] are within error of each other in “self-cleavage kobs at 2500 uM GlcN6P” value: 6.07e-05 ± 1.3e-05 s⁻¹ for the first, 9.14e-05 ± 2e-05 s⁻¹ for the second.

AUAAAAGCGCCAGAACUACAGAAAUGUAGUGGACGAGGAGAAGGUUUAUCGAAUUUUCGGCGUAUGCCUCCAAA [U31G G41A G63U] and AUAAAAGCGCCAGAACUACAGAAAUGUAGUUGACGAGGAGGAAGUUUAUGGAAUUUUCGGCGGAUGCCGCCAAA [G43A C50G U69G] cannot be ordered by “self-cleavage kobs at 2500 uM GlcN6P” value: < 1e-05 s⁻¹ for the first, < 1e-05 s⁻¹ for the second.

First: AUAAAAGCGCCAGAACUACAGAAAUGUAGUUGACGAAGAGGAGGUUUAUCGAUUGUUCGGCGGAUGCCUCCAAA [G37A A53U U55G]
Second: AUAAAAUCGCCAGAACUACAGAAAUGUAGUUGACGAGGUGGAGGUUUAUAGAAUUUUCGGCGGAUGCCUCCAAA [G7U A39U C50A]
The “self-cleavage kobs at 2500 uM GlcN6P” value of the first is higher: 0.000444 ± 9.3e-05 s⁻¹ for the first, < 1e-05 s⁻¹ for the second.

First: AUAAAAGCGCCAGCACUACAGAAAUGUAGUUCACGAGGAGGAGGUUUAUCGAAUUUUCGGCGGAUGCCUCUAAA [A14C G32C C71U]
Second: AUAAAAGCGCCCGAACUACAGAAAUGUAGAUGACGAGGAGGAGGUUUAUCGAAUUUUCGACGGAUGCCUCCAAA [A12C U30A G60A]
The “self-cleavage kobs at 2500 uM GlcN6P” value of the first is higher: 0.000118 ± 2.6e-05 s⁻¹ for the first, < 1e-05 s⁻¹ for the second.

AUAAAAGCGCCAUAACUACAGAAAUGUAGUUGACGAGGAGGAGGUUUAUCGAAUUUGCGGCGGACGCCUCCAAA [G13U U57G U65C] and AUAAAAGCGCCAGAACUACAGAAAUGUAGUUAACAAGGAGGAGGUUUAUCGAAUUUUCGGUGGAUGCCUCUAAA [G32A G35A C61U C71U] cannot be ordered by “self-cleavage kobs at 2500 uM GlcN6P” value: < 1e-05 s⁻¹ for the first, < 1e-05 s⁻¹ for the second.

AUAAAAGGGCCAGAACUACAGAAAUGUAGUUGACGAAGUGGAGGUUUAUCGAAUUUUCGGCGGAUGCCUCCAAA [C8G G37A A39U] and AUAAAAUCGCCAGAACUACAGAAAUGUAGUUGACGAGGAGGAGGUUUAUCGAAUUUUCGGCGGGUACCUCCAAA [G7U A64G G66A] cannot be ordered by “self-cleavage kobs at 2500 uM GlcN6P” value: < 1e-05 s⁻¹ for the first, < 1e-05 s⁻¹ for the second.

AUAAAAGGGCCAGAACUACAGAAAUGUAGUUGACUAGGCGGAGGUUUAUCGAAUUUUCGGCGGAUGCCUCCAAA [C8G G35U A39C] and AUAAAAGCCCCAGAACUACAGAAAUGUAGUUGACGAGGAUUAGGGUUAUCGAAUUUUCGGCGGAUGCCUCCAAA [G9C G40U G41U U45G] cannot be ordered by “self-cleavage kobs at 2500 uM GlcN6P” value: < 1e-05 s⁻¹ for the first, < 1e-05 s⁻¹ for the second.

Variants of: B1
Test: self-cleavage kobs at 640 uM GlcN6P; higher = faster cleavage; RNA array
Details: with glucosamine-6-phosphate
Outline: as §1

AUAAAAGCGCCAGAACUACAGAAAUGUAGGUGAAGAGGAGGAGGUUAAUCGAAUUUUCGGCGGAUGCCUCCAAA [U30G C34A U47A] and AUAAAAGCGCCAGAACUACAGAAAUGUAGUUGACGAGGAGGUGGUUUAUCCAAUUUUCUGCGGAUGCCUCCAAA [A42U G51C G59U] cannot be ordered by “self-cleavage kobs at 640 uM GlcN6P” value: < 1e-05 s⁻¹ for the first, < 1e-05 s⁻¹ for the second.

AUAAAAGCCUCAUAACUACAGAAAUGUAGUUGACGAGGAGGAGGUUUAUCGAAUUUUCGGCGGAUGCCUCCAAA [G9C C10U G13U] and AUAAAAGCUCCGGCACUACAGAAAUGUAGUUGACGAGGAGGAGGUUUAUCGACUUUUCGGCGGAUGCCUCCAAA [G9U A12G A14C A53C] cannot be ordered by “self-cleavage kobs at 640 uM GlcN6P” value: < 1e-05 s⁻¹ for the first, < 1e-05 s⁻¹ for the second.

First: AUAAAAGCGCCUGAACUACAGAAAUGUAGUUGACGAGGAGGAGGUUUAUCGAAUUUUCGGCGGAUGUCUCGAAA [A12U C67U C71G]
Second: AUAAAAGCGCCAGAACUACAGAAAUGUAGUUGACGAGGGGGAGGUUUAACGAAUUUUCGGCGGAUGCUUCCAAA [A39G U49A C68U]
The “self-cleavage kobs at 640 uM GlcN6P” value of the first is higher: 7.19e-05 ± 2.7e-05 s⁻¹ for the first, < 1e-05 s⁻¹ for the second.

Compared with AUAAAAGCUCGAGAACUACAGAAAUGUAGUUGACGAGGAGUAGGUUUAUCGAAUUUUCGGCGGAUGCCUCCAAA [G9U C11G G41U], AUAAAAGCGCCAGCACUACAGAAAUGUAGUUCACGAGGAGGAGGUUUAUCGAAUUUUCGGCGGAUGCCUCUAAA [A14C G32C C71U] is higher in “self-cleavage kobs at 640 uM GlcN6P” value: < 1e-05 s⁻¹ for the first, 7.58e-05 ± 2.5e-05 s⁻¹ for the second.

In the case of AUAAAAGCGCCAGGACUACAGAAAUGUAGAUGACGUGGAGGAGGUUUAUCGAAUUUUUGGCGGAUUCCUCCAAA [A14G U30A A36U C58U G66U], the “self-cleavage kobs at 640 uM GlcN6P” value is reported as < 1e-05 s⁻¹.

Variants of: B1
Test: self-cleavage kobs at 10000 uM GlcN6P; higher = faster cleavage; RNA array
Details: with glucosamine-6-phosphate
Outline: as §1

Going from AUAAAAGCGCCAGAACUACAGAAAUGUAGUUGACGAGCAGGAGGUUUAUCGAUUUUUCGGCGGAUGCCUCCAAA [G38C A53U] to AUAAAAGCGCCAGGACUACAGAAAUGUACUUGACGAGGGGGAGGUUUAUCGAAUUUUCGGCGGAUGCCUCCAAA [A14G G29C A39G], the “self-cleavage kobs at 10000 uM GlcN6P” value rises from < 1e-05 s⁻¹ to 0.000412 ± 7.6e-05 s⁻¹.

Compared with AUAAAAGCGCCUGAACUACAGAAAUGUAGUUGACGAGGAGGAGGUUUAUCGAAUUUUCGGCGGAUGUCUCGAAA [A12U C67U C71G], AUAAAAGCGCCAGCACUACAGAAAUGUAGUUCACGAGGAGGAGGUUUAUCGAAUUUUCGGCGGAUGCCUCUAAA [A14C G32C C71U] is 8.3-fold higher in “self-cleavage kobs at 10000 uM GlcN6P” value: 4.02e-05 ± 2e-05 s⁻¹ for the first, 0.000332 ± 7.4e-05 s⁻¹ for the second.

AUAAAAGCGCCCGAACUACAGAAAUGUAGAUGACGAGGAGGAGGUUUAUCGAAUUUUCGACGGAUGCCUCCAAA [A12C U30A G60A] and AUAAAAGCGCCAUAACUACAGAAAUGUAGUUGACGAGGAGGAGGUUUAUCGAAUUUGCGGCGGACGCCUCCAAA [G13U U57G U65C] cannot be ordered by “self-cleavage kobs at 10000 uM GlcN6P” value: < 1e-05 s⁻¹ for the first, < 1e-05 s⁻¹ for the second.
